Data as given in the supplement of paper PMC10567573.

B1: BEX1 (parent)
chain: EENMERIGEEVRQLMEKLREKQLS
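Note: lentivirally expressed fusions sorted by FACS into six bins by GFP to DsRed ratio, PSI derived from sequencing read proportions per bin multiplied by bin number.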

Variants of: B1
Experiment: protein stability index of a GFP-peptide fusion (GPS, HEK-293T) (PSI 1-6); higher = more stable
Conditions: c terminus: a fixed tail appended
Work on EENMERIGEYVRQLMEKLREKQLS [E10Y] yielded a protein stability index of 4.13.
EENMEIIGEEVRQLMEKLREKQLS [R6I] showed a protein stability index of 3.92.
For EENMERIGEEVRQLMEKLREKGLS [Q22G], the protein stability index was 4.18.
EENMERIGDEVRQLMEKLREKQLS [E9D] showed a protein stability index of 3.63.
For EENMERIGEEVRQLMEKLREKQAS [L23A], the protein stability index was 4.63.
Work on EENMEKIGEEVRQLMEKLREKQLS [R6K] yielded a protein stability index of 4.8.
Variant EENMERIGEEVRQLMEKKREKQLS [L18K] has a protein stability index of 5.26.
EENMERIGEWVRQLMEKLREKQLS [E10W] showed a protein stability index of 3.67.
EENMARIGEEVRQLMEKLREKQLS [E5A] showed a protein stability index of 4.28.
EENMERIGAEVRQLMEKLREKQLS [E9A] showed a protein stability index of 4.76.
Work on EENLERIGEEVRQLMEKLREKQLS [M4L] yielded a protein stability index of 4.16.
Variant EENMERIGEEGRQLMEKLREKQLS [V11G] has a protein stability index of 5.64.
For EQNMERIGEEVRQLMEKLREKQLS [E2Q], the protein stability index was 4.2.
Work on EENMERIGEELRQLMEKLREKQLS [V11L] yielded a protein stability index of 4.68.
With EENMERSGEEVRQLMEKLREKQLS [I7S] the protein stability index was 5.17.
With EENMEHIGEEVRQLMEKLREKQLS [R6H] the protein stability index was 5.43.
EENMERIGEEVRQLMEKLFEKQLS [R19F] showed a protein stability index of 3.95.
With EENMERIGEEVRQLMEKLRSKQLS [E20S] the protein stability index was 4.57.
EENMERIGEEVMQLMEKLREKQLS [R12M] showed a protein stability index of 4.62.
Work on EENMERIGEEVRQLMEKLRENQLS [K21N] yielded a protein stability index of 4.61.
EENMERIGEEVRQLNEKLREKQLS [M15N] showed a protein stability index of 3.02.
Variant EENMERIGPEVRQLMEKLREKQLS [E9P] has a protein stability index of 4.98.
EENMERIGEEVRQLMEKLRFKQLS [E20F] showed a protein stability index of 2.75.
EENMERIGEHVRQLMEKLREKQLS [E10H] showed a protein stability index of 4.
Work on EENMERIGEEVRQLMEKLAEKQLS [R19A] yielded a protein stability index of 4.72.
In the case of EENMERIGEERRQLMEKLREKQLS [V11R], the protein stability index is reported as 5.38.
Variant EENMERIGETVRQLMEKLREKQLS [E10T] has a protein stability index of 3.96.
For EENMERGGEEVRQLMEKLREKQLS [I7G], the protein stability index was 4.97.
Variant EENMERIGEETRQLMEKLREKQLS [V11T] has a protein stability index of 4.5.
Work on EENMERIGSEVRQLMEKLREKQLS [E9S] yielded a protein stability index of 4.51.
Work on EENMERLGEEVRQLMEKLREKQLS [I7L] yielded a protein stability index of 4.74.
EENMERIGKEVRQLMEKLREKQLS [E9K] showed a protein stability index of 4.2.
In the case of EENKERIGEEVRQLMEKLREKQLS [M4K], the protein stability index is reported as 5.35.
Work on EENMERIGEEVRQLMEKIREKQLS [L18I] yielded a protein stability index of 4.48.
EENMEVIGEEVRQLMEKLREKQLS [R6V] showed a protein stability index of 4.81.
With EENMERIGEEVVQLMEKLREKQLS [R12V] the protein stability index was 5.27.
For EENMERIGEKVRQLMEKLREKQLS [E10K], the protein stability index was 3.89.
In the case of EENMEWIGEEVRQLMEKLREKQLS [R6W], the protein stability index is reported as 4.69.
With ERNMERIGEEVRQLMEKLREKQLS [E2R] the protein stability index was 4.55.
EENMERIGEEVRCLMEKLREKQLS [Q13C] showed a protein stability index of 4.53.
Work on EENMERIGEEVRQLMEKLREKQLM [S24M] yielded a protein stability index of 4.43.
Work on EENMERILEEVRQLMEKLREKQLS [G8L] yielded a protein stability index of 3.33.
EENMERIGEEVRQLMEKLREKQQS [L23Q] showed a protein stability index of 4.97.
In the case of EEQMERIGEEVRQLMEKLREKQLS [N3Q], the protein stability index is reported as 3.94.
EENMERIGEEVRQLMEKLREKDLS [Q22D] gave a protein stability index of 4.73.
For EENMERIGEEMRQLMEKLREKQLS [V11M], the protein stability index was 4.63.
EENMERIGEEVRQLWEKLREKQLS [M15W] showed a protein stability index of 3.71.
Work on EENMERIGEEVRQLMEKLREKQLL [S24L] yielded a protein stability index of 4.21.
EENMERIGEEVPQLMEKLREKQLS [R12P] showed a protein stability index of 5.1.
In the case of EENMERIGEEVRQLMEKLREQQLS [K21Q], the protein stability index is reported as 4.53.
EENMFRIGEEVRQLMEKLREKQLS [E5F] gave a protein stability index of 4.54.
EANMERIGEEVRQLMEKLREKQLS [E2A] gave a protein stability index of 2.97.
EENMERIGEEVRQLMEKLREHQLS [K21H] gave a protein stability index of 3.15.
EENMERIGEEVRQLMEKLREKQVS [L23V] showed a protein stability index of 3.88.
With EENMERIGEEVRQLMEKLRESQLS [K21S] the protein stability index was 4.25.
With SENMERIGEEVRQLMEKLREKQLS [E1S] the protein stability index was 4.
For EENMERIGEEVRQLMHKLREKQLS [E16H], the protein stability index was 4.49.
Variant EENMERTGEEVRQLMEKLREKQLS [I7T] has a protein stability index of 5.18.
For EENMERIGEEVRQIMEKLREKQLS [L14I], the protein stability index was 4.06.
Variant EENMEQIGEEVRQLMEKLREKQLS [R6Q] has a protein stability index of 4.04.
EENMERIGEEVRQLMEKLREKQLI [S24I] gave a protein stability index of 3.97.
Variant EENMERIGEEVRQLMEKLREKQIS [L23I] has a protein stability index of 5.26.
Work on EPNMERIGEEVRQLMEKLREKQLS [E2P] yielded a protein stability index of 4.34.
EFNMERIGEEVRQLMEKLREKQLS [E2F] gave a protein stability index of 4.46.
EHNMERIGEEVRQLMEKLREKQLS [E2H] showed a protein stability index of 4.37.
KENMERIGEEVRQLMEKLREKQLS [E1K] showed a protein stability index of 3.81.
Work on EENMERIGEEVRQRMEKLREKQLS [L14R] yielded a protein stability index of 5.59.
With EENMVRIGEEVRQLMEKLREKQLS [E5V] the protein stability index was 3.3.
EENEERIGEEVRQLMEKLREKQLS [M4E] gave a protein stability index of 5.3.
With EENMERIGEEVRQLMEKLREKQES [L23E] the protein stability index was 4.46.
For EECMERIGEEVRQLMEKLREKQLS [N3C], the protein stability index was 3.89.
With EENMERIGEEFRQLMEKLREKQLS [V11F] the protein stability index was 4.25.
In the case of EENMERIGEEVRQLMEKLRRKQLS [E20R], the protein stability index is reported as 4.46.
With EENSERIGEEVRQLMEKLREKQLS [M4S] the protein stability index was 5.45.
Variant EENMERIGEMVRQLMEKLREKQLS [E10M] has a protein stability index of 3.51.
With EENMERIGEEVRQQMEKLREKQLS [L14Q] the protein stability index was 5.03.
With EENMERIGEESRQLMEKLREKQLS [V11S] the protein stability index was 3.41.
For EENMERIGEPVRQLMEKLREKQLS [E10P], the protein stability index was 4.75.
EENMEPIGEEVRQLMEKLREKQLS [R6P] gave a protein stability index of 5.03.
Work on EEGMERIGEEVRQLMEKLREKQLS [N3G] yielded a protein stability index of 5.04.
Work on EENMERIGEEVHQLMEKLREKQLS [R12H] yielded a protein stability index of 5.45.
EENMERIGEEVRQLMEKLREKQLF [S24F] showed a protein stability index of 4.32.
Work on EENMERIGEEVRQLMEKLREKQWS [L23W] yielded a protein stability index of 4.68.
EENMERIGEEVFQLMEKLREKQLS [R12F] showed a protein stability index of 4.12.
Variant EENMERKGEEVRQLMEKLREKQLS [I7K] has a protein stability index of 4.23.
EENMERIGEEPRQLMEKLREKQLS [V11P] gave a protein stability index of 5.37.
For EENIERIGEEVRQLMEKLREKQLS [M4I], the protein stability index was 4.28.
For EENMLRIGEEVRQLMEKLREKQLS [E5L], the protein stability index was 3.89.
EENMERIGEEVRQNMEKLREKQLS [L14N] gave a protein stability index of 5.76.
EENMETIGEEVRQLMEKLREKQLS [R6T] gave a protein stability index of 4.85.
Variant EENMERIGEEVRQLMEKLREKQYS [L23Y] has a protein stability index of 5.23.
Work on EENMERIGEEVRQLMEKLTEKQLS [R19T] yielded a protein stability index of 4.76.
In the case of EENMERIGEEVRWLMEKLREKQLS [Q13W], the protein stability index is reported as 3.37.
Work on EENMERIGEEVRQLMEKLREKQFS [L23F] yielded a protein stability index of 4.58.
